Laboratory results: publication PMC4263579

Biological target: recombinant NS1 protein (dengue virus non-structural 1 protein)
Assay: native gel or EMSA; Native-PAGE of the recombinant NS1 protein; data not shown

## recombinant NS1 protein (dengue virus non-structural 1 protein)
  stoichiometry N: 6
